Where no end group is shown, it is not given here.
Columns and labels:
[1] = test system: Human kidney cancer A498 cells; assay: Colony formation assay; format: cell-based; conditions: daily treatment for 5 days
Protocol: Human kidney cancer A498 cells were seeded at 300 cells/well in a 6-well plate. The next day, cells were treated with various peptides daily. Each condition was run in triplicate. After 5 days of treatment, cells were washed once with PBS after media removal, stained with 0.5% crystal violet in 30% ethanol and 3% formaldehyde for 10 min at RT and washed with distilled water. Colonies were counted under the microscope.
Human renal cancer cells were treated with Ang-(1-6) or analogues and the effect on colony formation counted. Such cells are used for in vivo experiments in rodents when implanted subcutaneously or into the kidney to generate a rapidly forming and growing tumour, being leathal if untreated.

AT2 receptor [2] = target: T1, AT2 receptor (Homo sapiens, UniProt P50052); assay: Block of Ang-(1-6) mediated cAMP signal in AT2-transfected HEK293 cells; format: cell-based; conditions: Ang-(1-6) 10^−10 M, increasing antagonist concentrations
T1 construct: expressed in transfected cells; host or cells: HEK-293, transient transfection with PolyFect
T1 sequence (P50052 1-363): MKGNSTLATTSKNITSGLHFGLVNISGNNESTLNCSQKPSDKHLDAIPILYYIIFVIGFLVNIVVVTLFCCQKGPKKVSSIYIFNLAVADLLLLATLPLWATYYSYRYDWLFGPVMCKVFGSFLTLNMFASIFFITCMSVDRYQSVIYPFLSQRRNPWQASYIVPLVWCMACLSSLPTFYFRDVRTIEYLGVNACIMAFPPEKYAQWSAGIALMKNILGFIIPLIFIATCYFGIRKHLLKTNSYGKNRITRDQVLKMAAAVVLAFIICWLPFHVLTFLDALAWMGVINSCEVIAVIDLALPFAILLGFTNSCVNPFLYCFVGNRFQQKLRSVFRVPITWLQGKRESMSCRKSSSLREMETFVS
Protocol: Human embryonic kidney (HEK-293) cells were cultured in DMEM medium supplemented with FBS (10%), HEPES buffer (1%), sodium pyruvate (1%), and L-glutamine (1%) and maintained under standard conditions (5% CO2, 95% humidity and 37° C.). Cells were cultured in 100 mm cell culture dishes and seeded in 48-well plates at a density of 75,000 cells per well. The next day, HEK-293 cells were transfected using a transient transfection procedure following the manufacturer's instructions. […] The protein concentration was determined using Pierce BCA Protein Assay Kit according to the manufacturer's protocol (Thermo Fisher Scientific, Waltham, Mass., USA).
cAMP concentration in cell lysates was determined using Direct cAMP ELISA kit (Enzo Life Sciences Ltd., Exeter, United Kingdom). […] The enzymatic reaction was stopped by adding 50 μl of Stop Solution, and the absorbance at 405 nm was measured immediately. The cAMP concentration was determined from non-linear standard curve using GraphPad Prism 6.0 software.
Cells were stimulated for 15 min with (a) 10^−11 M and 10^−1° M Ang-(1-6), (b) Ala^1-Ang-(1-6) (10^−10 M) or (c) a range of concentrations (10^−12M to 10^−8M) of Ala^1-Ang (1-6) together with Ang-(1-6) at a concentration of 10^−10M. The concentration of cAMP was measured in accordance with the methodology provided.

AT2 receptor [3] = target: T1, AT2 receptor; assay: cAMP in AT2-transfected HEK293 cells; format: cell-based; conditions: for intracellular cAMP production: AT2-transfected HEK293, 15 min stimulation
Protocol: Human embryonic kidney (HEK-293) cells were cultured in DMEM medium supplemented with FBS (10%), HEPES buffer (1%), sodium pyruvate (1%), and L-glutamine (1%) and maintained under standard conditions (5% CO2, 95% humidity and 37° C.). Cells were cultured in 100 mm cell culture dishes and seeded in 48-well plates at a density of 75,000 cells per well. The next day, HEK-293 cells were transfected using a transient transfection procedure following the manufacturer's instructions. Briefly, 150 ng of control plasmid pcDNA3.1 or a combination of 50 ng of pcDNA3.1 and 100 ng of expression vectors containing the cDNA for Mas, MrgD, AT1 or AT2, were mixed with serum-free medium and PolyFect transfection reagent. After 10 min incubation at room temperature, which allowed the complex formation, complete medium was added and the total volume was transferred into appropriate wells of the 48-well plate. The cells were incubated for 16-20 hrs. The next day, the medium was replaced by serum-free medium 1 hr before stimulation. After stimulation with A779, D-Pro, PD123319, forskolin (all 10^−6 M), or PTX (50 ng/ml), or SQ22536 (2×10^−6M) for 15 min, the solvent, Ang-(1-6) or C21 (all in the mentioned concentrations) were added for 15 min. Then, the cells were lysed by adding 180 μl/well of 0.1M hydrochloric acid with 0.1% Triton X-100, and the lysates were stored at −80° C. until cAMP measurement. The protein concentration was determined using Pierce BCA Protein Assay Kit according to the manufacturer's protocol (Thermo Fisher Scientific, Waltham, Mass., USA).
(§1) cAMP concentration in cell lysates was determined using Direct cAMP ELISA kit (Enzo Life Sciences Ltd., Exeter, United Kingdom). Briefly, wells of 96-well plate (Goat Anti-Rabbit IgG pre-coated) were neutralized with 50 μl of Neutralizing Reagent. Next, 100 μl of acetylated cAMP standard or cell lysate was added, followed by 50 μl of blue cAMP-Alkaline Phosphatase Conjugate and 50 μl of yellow EIA Rabbit Anti-cAMP antibody. The plate was then incubated on a shaker (˜400 rpm) at room temperature for 2 h. Next, the wells were aspirated and rinsed three times with Wash Buffer (1:10, Tris buffered saline containing detergents and sodium azide in deionized water). After the final wash, the plate was tapped against clean paper towel to remove any remaining Wash Buffer. To each well, 200 μl p-Nitrophenyl Phosphate Substrate Solution was added, and the plate was incubated for 1 h at room temperature. The enzymatic reaction was stopped by adding 50 μl of Stop Solution, and the absorbance at 405 nm was measured immediately. The cAMP concentration was determined from non-linear standard curve using GraphPad Prism 6.0 software.
The results are illustrated by FIG. 1A.
pcDNA-transfected HEK293 cells and AT2-transfected HEK293 cells were stimulated for 15 min with a range of concentrations (10^−16 to 10^−6 M) of Ang-(1-6). The results are illustrated by FIGS. 1B and 1C.
AT2-transfected HEK293 cells were stimulated for 15 min with a range of concentrations (10^−13 to 10^−6 M) of C21, Ang (1-4) and Ang (1-7) PBS and the concentration of cAMP was measured in accordance with the methodology provided. The results are illustrated by FIGS. 6 and 7.
AT2-transfected HEK293 cells were stimulated for 15 min with C21, Ang-(1-6) and a range of concentrations (10^−14 to 10^−7 M) of Ala^1-Ser^4-Ang-(1-6), and the concentration of cAMP was measured in accordance with the methodology provided.
AT2-transfected HEK293 cells were stimulated for 15 min with Ang-(1-6) and a range of concentrations (10^−15 to 10^−7 M) of Ser^4-Ang-(1-6) and the concentration of cAMP was measured in accordance with the methodology provided.

[4] = Peptide degradation in mouse kidney membranes; format: in vitro ADME; conditions: after 15 minutes, compared to Ang-(1-7) and Ang II
Protocol: Peptides (10^−4M) were incubated with 45 μg of murine kidney membrane preparations and diluted with 50 mM Tris-HCl buffer pH 7.4 laced with 0.1% BSA to minimise adhesion of the peptide onto the tube walls. Incubations proceeded for the desired time, after which the reaction was stopped by addition of half volume of 350 mM HClO4. Samples were then centrifuged to remove any particulates prior to LCMS analysis.
Ang-(1-6) degradation in mouse kidney membranes over 30 minutes compared to Ang-(1-7) and Ang II. (FIG. 4A)

HUVEC = assay: cAMP in primary human umbilical vein endothelial cells; format: cell-based; conditions: 15 min stimulation
Protocol: Primary human umbilical vein endothelial cells (HUVEC) were purchased from PromoCell (Heidelberg, Germany). HUVEC were cultured in 100 mm cell culture dishes and were seeded at 75,000 per well in 24-well plates at passage 5-7, for stimulation. Stimulation with Ang-(1-6) or C21 and the blockers was carried out as described above.
as §1, with “To each well, 200 μl p-Nitrophenyl Phosphate Substrate Solution was added, and the plate was incubated for 1 h at room temperature.” left out, “software. […]” for “software.”

Question: Which “number of colonies versus solvent (PBS)” value [1] does the source give for “RVSIH [Ser^4-Ang (2-6), fragment peptide 2-6 with Ser substitution]” here?
Answer: significant reduction of colonies

Question: Which results are given for “ARVYIH [Ala^1-Ang-(1-6), variant of Ang-(1-6) with Ala at position 1, AT2 antagonist]”?
Answer: block of cAMP-generating capacity of Ang-(1-6) (AT2 receptor [2]): completely blocked; intracellular cAMP production (AT2 receptor [3]): no effect

Question: With DRVYIHP [Ang (1-7), reference compound] as the molecule, how does the “intracellular cAMP production” value (AT2 receptor [3]) read?
Answer: do not increase intracellular cAMP

Question: What does the source list for “ARVSIH [Ala^1-Ser^4-Ang-(1-6), variant of Ang-(1-6) with Ala at position 1 and Ser at position 4]”?
Answer: concentration at Emax (cAMP) (AT2 receptor [3]; AT2-transfected HEK293): 10^−11 M; intracellular cAMP production (AT2 receptor [3]): increases intracellular cAMP production; increase in intracellular cAMP production compared with Ang (1-6) (AT2 receptor [3]; same concentration (10^−11M)): greater increase

Question: For “RVYIH [Ang (2-6), truncated version of Ang (1-6)]”, which “number of colonies versus solvent (PBS)” value [1] is on record?
Answer: significant reduction of colonies

Question: For DRVYIH [Ang (1-6), DRVYIH], which peptide degradation [4] is on record?
Answer: rapid

Question: For “DRVY (Angiotensin-2; UniProt P01019 25-28, looked up, fragment) [Ang (1-4), angiotensin fragment 1-4, reference compound]”, which “intracellular cAMP production” value (AT2 receptor [3]) is on record?
Answer: do not increase intracellular cAMP

Question: For “DRVSIH [Ser^4-Ang-(1-6), variant of Ang-(1-6) with Ser at position 4]”, which “AT2 stimulation relative to Ang (1-6)” value (AT2 receptor [3]; AT2-transfected HEK293, 10^−15 to 10^−7 M) is on record?
Answer: comparable to Ang (1-6)

Question: What about the “intracellular cAMP production” value (AT2 receptor [3]) of the same molecule?
Answer: increases intracellular cAMP production

Question: Which “cAMP stimulation in primary endothelial cells (HUVEC)” value (HUVEC) does the source give for `CCCCOC(=O)NS(=O)(=O)c1sc(CC(C)C)cc1-c1ccc(Cn2ccnc2)cc1` [C21] here?
Answer: can stimulate such cells
